Assay results as given in patent US20230406925A1 (PHYLAXIS BIOSCIENCE, published 2023).

Columns and labels:
[1] = biological target: T1, human Siglec-8 (full-length, on cells) (human, UniProt Q9NYZ4 17-499); experiment: flow cytometry, CHO cells transiently transfected with full-length human Siglec-8, A647 anti-human Fc-gamma secondary, Mean RL1-H
T1 construct: Used for full-length human Siglec-8 transiently expressed on CHO or 293 cells and for native Siglec-8 on primary human eosinophils
Description: Binding of the anti-human Siglec-8 VHHs, B12, D1, E2, and G2, as a bivalent VHH-hIgG1-xELL-Fc (VHH of SEQ ID NO: 49, 55, 61, and 1, respectively linked to an Fc xELL via linker 2, these constructs are also designated cx8982, cx8983, cx8984, and cx10382, respectively) was determined by flow cytometry using CHO cells that had been transiently transfected with full-length human Siglec-8. Binding specificity was assessed using untransfected (UT) CHO cells as a control. For the binding assays, 50,000 Siglec-8 CHOs or UT CHOs were seeded in a 96-well plate and a titration of anti-Siglec8-VHH-xELL was added in FACS Buffer (PBS 1% BSA, 0.1% NaN3 pH 7.4) incubating for 30 minutes at 4° C. After washing, the plates were incubated with an A647-conjugated anti-human Fcγ specific secondary antibody (Jackson ImmunoResearch) diluted 1:2000 in FACS buffer for 30 minutes at 4° C. The plates were washed, and binding was determined by flow cytometry quantitating anti-human A647 mean fluorescent intensity using an Intellicyt iQue Plus.

[2] = biological target: T1, human Siglec-8 (full-length, on cells); experiment: flow cytometry, CHO cells transfected with human Siglec-8, anti-human Fc-gamma secondary, Median RL1-H
Description: In additional studies, the parental llama G2 sequence was humanized and multivalent hzSiglec8-G2v14-Fc antibodies were cloned with a reduced effector function xELL human Fc. Binding of bivalent (cx11422; SEQ ID NO: 5 linked to an Fc xELL via linker 2), tetravalent (cx11580; SEQ ID NO: 9 linked to an Fc xELL via linker 2), and hexavalent (cx11579; SEQ ID NO: 10 linked to an Fc xELL via linker 2) hzSiglec8-G2v14-Fc antibodies were assessed by flow cytometry using CHO cells transfected with human Siglec-8. A titration series of the fusion proteins were incubated with the Siglec8-expressing CHO cells (5×10⁴ cells/well) for 30 minutes at 4° C. in FACS Buffer (PBS 1% BSA, 0.1% NaN3 pH 7.4) in 96 well plates. Following one 150 μL wash with FACS buffer, an APC-conjugated anti-human Fcγ specific secondary antibody (Jackson ImmunoResearch) was added, and cells were incubated for 30 minutes at 4° C. Following one additional wash in FACS buffer, bound antibodies were detected via flow cytometry (iQue Intellicyte).
The calculated affinity was similar between the bivalent, tetravalent, and hexavalent hzSiglec8-G2v14-Fc antibodies. The observed Bmax was reduced with increasing valency as anticipated, due the fact that the Fc portion of the antibody was detected in this assay and the ratio of Fc regions to anti-Siglec-8 binding domains is inverse to valency.

[3] = biological target: T1, human Siglec-8 (full-length, on cells); experiment: flow cytometry on human eosinophils (CD16- CCR3+) from whole blood, anti-human AF647 secondary, MFI
Source text: To determine if increasing the valency of Siglec-8 antibodies could enhance agonist activity, the parental llama B12, D1 and E2 VHH sequences were used to generate tetravalent (Tet-B12 (cx8467; SEQ ID NO:50 linked to an Fc), Tet-D1 (cx8469; SEQ ID NO:56 linked to an Fc), and Tet-E2 (cx8463; SEQ ID NO:62 linked to an Fc)) and hexavalent (Hex-B12 (cx8466; SEQ ID NO:51 linked to an Fc), Hex-D1 (cx8523; SEQ ID NO:57 linked to an Fc), and Hex-E2 (cx8522; SEQ ID NO:165 linked to an Fc)), Siglec8-VHH-Fc antibodies linked to a reduced effector function xELL human Fc region via linker 2. The bivalent (Bi-B12 (cx8982), Bi-D1 (cx8983) and Bi-E2 (cx8984)), tetravalent, and hexavalent Siglec8-VHH-Fc antibodies were assessed by flow cytometry for binding to eosinophils (CD16⁻ CCR3⁺). […] Cells were spun down and then resuspended in titrated test articles starting at 200 nM 1:4 and incubated for 30 minutes at 4° C. before being washed twice and resuspended in secondary mixture (2*; anti-CCR3 FITC, anti-human AF647, PI, anti-CD16 BV605) and incubated for 30 minutes at 4° C., washed twice, and bound antibodies were detected via flow cytometry (Novocyte). […]

T1 sequence (Q9NYZ4 17-499): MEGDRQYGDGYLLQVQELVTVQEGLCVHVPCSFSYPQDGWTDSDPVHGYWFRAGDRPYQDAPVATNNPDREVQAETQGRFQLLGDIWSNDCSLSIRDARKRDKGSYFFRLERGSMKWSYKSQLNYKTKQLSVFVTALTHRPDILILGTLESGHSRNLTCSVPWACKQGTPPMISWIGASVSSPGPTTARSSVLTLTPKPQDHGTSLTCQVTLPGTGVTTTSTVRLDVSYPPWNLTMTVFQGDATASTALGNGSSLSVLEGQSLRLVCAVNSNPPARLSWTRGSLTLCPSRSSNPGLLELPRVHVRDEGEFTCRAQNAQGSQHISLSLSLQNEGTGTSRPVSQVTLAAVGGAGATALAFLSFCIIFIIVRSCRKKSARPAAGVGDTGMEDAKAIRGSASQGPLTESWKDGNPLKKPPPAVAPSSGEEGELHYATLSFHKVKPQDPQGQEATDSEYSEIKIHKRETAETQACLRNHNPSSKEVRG

B1: anti-Siglec8-E2-xELL, bivalent VHH-hIgG1-xELL-Fc (cx8984) (Fc fusion)
chain: QVQLVESGGGLVQPGGSLRLSCATSGIIFTSNVINWYRQAPGKQREFVAFITSITSGQSTMYADAVKGRFTVSRDNDKNIGYLQMTSLQPEDTARYVCNVGAYWGQGTQVTVKPGGGGDKTHTCPPCPAPGGPSVFLFPPKPKDTLMISRTPEVTCVVVDVSHEDPEVKFNWYVDGVEVHNAKTKPREEQYNSTYRVVSVLTVLHQDWLNGKEYKCKVSNKALPAPIEKTISKAKGQPREPQVYTLPPSRDELTKNQVSLTCLVKGFYPSDIAVEWESNGQPENNYKTTPPVLDSDGSFFLYSKLTVDKSRWQQGNVFSCSVMHEALHNHYTQKSLSLSPGK
notes: also called Bi-E2
Question: B1 was tested. Which “EC50 (read off the curve)” value [1] did it give?
Answer: ~300 pM

B2: tetravalent hzSiglec8-G2v14-Fc antibody, Fc xELL (cx11580) (Fc fusion)
chain: EVQLLESGGGEVQPGGSLRLSCAASGSISIFSMYVVAWYRQAPGKEREWVAFIQRGGTANYAESAKGRFTISRDNAKNTVYLQMSSLRAEDTAVYYCNYINTDNEIGGPWGQGTLVTVKPGGSGGSEVQLLESGGGEVQPGGSLRLSCAASGSISIFSMYVVAWYRQAPGKEREWVAFIQRGGTANYAESAKGRFTISRDNAKNTVYLQMSSLRAEDTAVYYCNYINTDNEIGGPWGQGTLVTVKPGGGGDKTHTCPPCPAPGGPSVFLFPPKPKDTLMISRTPEVTCVVVDVSHEDPEVKFNWYVDGVEVHNAKTKPREEQYNSTYRVVSVLTVLHQDWLNGKEYKCKVSNKALPAPIEKTISKAKGQPREPQVYTLPPSRDELTKNQVSLTCLVKGFYPSDIAVEWESNGQPENNYKTTPPVLDSDGSFFLYSKLTVDKSRWQQGNVFSCSVMHEALHNHYTQKSLSLSPGK
Question: How did the “EC50 (read off the curve)” value [2] turn out when B2 was run?
Answer: ~30 pM

B3: anti-Siglec8-D1-xELL, bivalent VHH-hIgG1-xELL-Fc (cx8983) (Fc fusion)
chain: QVQLVESGGGLVQPGGSLRLSCAASGSIASIHGMGWYRQAPGKERELVAAIAGEGSTYYADSVKGRFTISRDFAKNTLYLQMNNLKAEDTAMYYCANNDERDDYWGQGTQVTVKPGGGGDKTHTCPPCPAPGGPSVFLFPPKPKDTLMISRTPEVTCVVVDVSHEDPEVKFNWYVDGVEVHNAKTKPREEQYNSTYRVVSVLTVLHQDWLNGKEYKCKVSNKALPAPIEKTISKAKGQPREPQVYTLPPSRDELTKNQVSLTCLVKGFYPSDIAVEWESNGQPENNYKTTPPVLDSDGSFFLYSKLTVDKSRWQQGNVFSCSVMHEALHNHYTQKSLSLSPGK
notes: also called Bi-D1
Question: With B3 as the binder, how does the “EC50 (read off the curve)” value [3] read?
Answer: ~50 pM
